Data published in the supplement of paper PMC9233669.
Fewer inactive variants are shown than the library holds.

Assays:
biotinyl-Met-oxazolone = experiment: self-aminoacylation, catalytic enhancement (BMO) (fold over background); higher = more active; k-Seq, kA / k0A0; sequences stand for … in GGGAAUGGAUCCACAUCUACGAAUUC…UUCACUGCAGACUUGACGAAGCUG
In short: (§1)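 Mutagenized RNA pools with a 21-nt variable region (0.43 μM) were reacted with each biotinyl-aminoacyl-oxazolone at 2–1250 μM for 90 minutes at room temperature, in 50 μL HEPES/NaCl/KCl/MgCl2/CaCl2 buffer containing 5% acetonitrile at pH 6.9–7.0. RNA captured on streptavidin was quantified by triplicate qPCR and by Illumina sequencing. The fraction reacted for each sequence was fit to a pseudo-first-order model with bootstrapping, and catalytic enhancement is the median kA divided by the uncatalyzed rate, taken as the low-activity peak of a bimodal Gaussian fit.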

biotinyl-Ile-oxazolone = experiment: self-aminoacylation, catalytic enhancement (BIO) (fold over background); higher = more active; k-Seq, kA / k0A0; sequences stand for … in GGGAAUGGAUCCACAUCUACGAAUUC…UUCACUGCAGACUUGACGAAGCUG
In short: as §1

biotinyl-Trp-oxazolone = experiment: self-aminoacylation, catalytic enhancement (BWO) (fold over background); higher = more active; k-Seq, kA / k0A0; sequences stand for … in GGGAAUGGAUCCACAUCUACGAAUUC…UUCACUGCAGACUUGACGAAGCUG
In short: as §1

biotinyl-Val-oxazolone = experiment: self-aminoacylation, catalytic enhancement (BVO) (fold over background); higher = more active; k-Seq, kA / k0A0; sequences stand for … in GGGAAUGGAUCCACAUCUACGAAUUC…UUCACUGCAGACUUGACGAAGCUG
In short: as §1

biotinyl-Phe-oxazolone = experiment: self-aminoacylation, catalytic enhancement (BFO) (fold over background); higher = more active; k-Seq, kA / k0A0; sequences stand for … in GGGAAUGGAUCCACAUCUACGAAUUC…UUCACUGCAGACUUGACGAAGCUG
In short: as §1

biotinyl-Leu-oxazolone = experiment: self-aminoacylation, catalytic enhancement (BLO) (fold over background); higher = more active; k-Seq, kA / k0A0; sequences stand for … in GGGAAUGGAUCCACAUCUACGAAUUC…UUCACUGCAGACUUGACGAAGCUG
In short: as §1

Row | Sequence | self-aminoacylation (biotinyl-Met-oxazolone) | self-aminoacylation (biotinyl-Ile-oxazolone) | self-aminoacylation (biotinyl-Trp-oxazolone) | self-aminoacylation (biotinyl-Val-oxazolone) | self-aminoacylation (biotinyl-Phe-oxazolone) | self-aminoacylation (biotinyl-Leu-oxazolone)
1 | AUUCAGCUAGGUCAGCGGGUG [Fam2.2 aminoacylation ribozyme variant] | 3.79 | 2.71 | 4.28 | 2.53 | 21.8 | 4.01
2 | AUUCAGCUAGGUCAUCGGCUG [Fam2.2 aminoacylation ribozyme variant] | 1.55 | 1.63 | 2.02 | 1.86 | 11.6 | 1.52
3 | AUUCAGCUAGGUCAUCGGGUU [Fam2.2 aminoacylation ribozyme variant] | 3.1 | 2.81 | 3.38 | 2.79 | 18.7 | 2.5
4 | AUUCAGCUAGGUCAUCGGUUG [Fam2.2 aminoacylation ribozyme variant] | 1.16 | 0.882 | 1.25 | 0.865 | 5.67 | 1.07
5 | AUUCAGCUAGGUCUUCGGGUG [Fam2.2 aminoacylation ribozyme variant] | 5.01 | 4.2 | 4.96 | 4.24 | 36.2 | 5.34
6 | AUUCAUCUAGGUCAUCGAGUG [Fam2.2 aminoacylation ribozyme variant] | 3.88 | 2.63 | 3.67 | 2.38 | 4.08 | 4.86
7 | AUUCAUCUAGGUCAUCGGUUG [Fam2.2 aminoacylation ribozyme variant] | 1.25 | 1.15 | 1.13 | 1.24 | 1.07 | 1.3
8 | AUUCAUCUAGGUGAUCGGGUG [Fam2.2 aminoacylation ribozyme variant] | 2.85 | 2.4 | 3.76 | 2.54 | 20.3 | 3.57
9 | AUUCAUCUAGUUCAUCGGGUG [Fam2.2 aminoacylation ribozyme variant] | 2.83 | 2.13 | 3.1 | 2.21 | 12.6 | 3.27
10 | AUUCCACUAGGUCAUCGGGUG [Fam2.2 aminoacylation ribozyme variant] | 9.49 | 6.56 | 8.98 | 6.23 | 77.2 | 14.2
11 | AUUCCACUGGUCAUCGAGUGA [Fam2.1 aminoacylation ribozyme variant] | 5.86 | 3.72 | 7.09 | 3.82 | 28.1 | 6.67
12 | AUUCCCCAAGGUCAUCGGGUG [Fam2.2 aminoacylation ribozyme variant] | 27 | 15.9 | 20.9 | 14.8 | 218 | 31.1
13 | AUUCCCCCGGUCAUCGAGUGA [Fam2.1 aminoacylation ribozyme variant] | 8.57 | 4.4 | 10.7 | 4.37 | 59.9 | 8.86
14 | AUUCCCCUAGCUCAUCGGGUG [Fam2.2 aminoacylation ribozyme variant] | 5.75 | 6.15 | 5.96 | 6.05 | 35.1 | 6.66
15 | AUUCCCCUAGGUCAUCCGGUG [Fam2.2 aminoacylation ribozyme variant] | 38.5 | 27.6 | 39.5 | 26.9 | 295 | 51.5
16 | AUUCCCCUAGGUCAUCGGAUG [Fam2.2 aminoacylation ribozyme variant] | 2.88 | 3.04 | 4.36 | 3.49 | 2.14 | 3.28
17 | AUUCCCCUAGGUCAUCGGGUA [Fam2.2 aminoacylation ribozyme variant] | 7.28 | 7.47 | 10.2 | 7.57 | 58.9 | 8.16
18 | AUUCCCCUAGGUCAUCUGGUG [Fam2.2 aminoacylation ribozyme variant] | 14.7 | 10.6 | 15.3 | 9.58 | 107 | 18.8
19 | AUUCCCCUGCUCAUCGAGUGA [Fam2.1 aminoacylation ribozyme variant] | 1.53 | 1.54 | 1.06 | 1.51 | 2.12 | 1.89
20 | AUUCCCCUGGUCAGCGAGUGA [Fam2.1 aminoacylation ribozyme variant] | 5.69 | 3.66 | 8.52 | 4.24 | 39.5 | 7.02
21 | AUUCCCCUGGUCAUCCAGUGA [Fam2.1 aminoacylation ribozyme variant] | 11.6 | 6.96 | 14.3 | 6.74 | 98.5 | 13.2
22 | AUUCCCCUGGUCAUCGAAUGA [Fam2.1 aminoacylation ribozyme variant] | 2.45 | 2.24 | 2.15 | 1.96 | 2.91 | 2.09
23 | AUUCCCCUGGUCAUCGACUGA [Fam2.1 aminoacylation ribozyme variant] | 1.23 | 1.54 | 1.41 | 1.64 | 1.59 | 1.25
24 | AUUCCCCUGGUCAUCGUGUGA [Fam2.1 aminoacylation ribozyme variant] | 5.03 | 2.66 | 5.65 | 3.33 | 37.6 | 5.32
25 | AUUCCCCUGGUCCUCGAGUGA [Fam2.1 aminoacylation ribozyme variant] | 6.08 | 3.65 | 6.87 | 3.77 | 42.5 | 7.24
26 | AUUCCCCUGUUCAUCGAGUGA [Fam2.1 aminoacylation ribozyme variant] | 5.28 | 4.07 | 7.62 | 4.28 | 12.4 | 5.39

Row | Sequence | self-aminoacylation (biotinyl-Met-oxazolone) | self-aminoacylation (biotinyl-Ile-oxazolone) | self-aminoacylation (biotinyl-Trp-oxazolone) | self-aminoacylation (biotinyl-Val-oxazolone) | self-aminoacylation (biotinyl-Phe-oxazolone) | self-aminoacylation (biotinyl-Leu-oxazolone)
27 | AUUCCCGUAGGUCAUCGGGUG [Fam2.2 aminoacylation ribozyme variant] | 25.3 | 17 | 25.3 | 20.2 | 259 | 32.4
28 | AUUCCGCUAGGUCAUCGGGUG [Fam2.2 aminoacylation ribozyme variant] | 14 | 8.43 | 13.6 | 8.93 | 128 | 17.7
29 | AUUCGCCAAGGUCAUCGGGUG [Fam2.2 aminoacylation ribozyme variant] | 10.7 | 7.65 | 11 | 6.69 | 91.8 | 14.7
30 | AUUCGCCGAGGUCAUCGGGUG [Fam2.2 aminoacylation ribozyme variant] | 12.4 | 6.76 | 9.29 | 7.83 | 80.2 | 13.7
31 | AUUCGCCUAGGUCAUCGGGGG [Fam2.2 aminoacylation ribozyme variant] | 5.82 | 4.36 | 3.54 | 3.72 | 30 | 7.51
32 | AUUCGCCUAGGUCAUCGGGUC [Fam2.2 aminoacylation ribozyme variant] | 1.62 | 1.58 | 1.76 | 1.91 | 6.94 | 1.88
33 | AUUCGCCUAGGUCAUUGGGUG [Fam2.2 aminoacylation ribozyme variant] | 4.27 | 3.14 | 4.29 | 3.23 | 23.2 | 5.43
34 | AUUCGCCUAGGUGAUCGGGUG [Fam2.2 aminoacylation ribozyme variant] | 2.35 | 2.56 | 3.31 | 2.48 | 20.6 | 3.46
35 | AUUCGCCUAGGUUAUCGGGUG [Fam2.2 aminoacylation ribozyme variant] | 5.77 | 3.77 | 5.88 | 4.33 | 42.5 | 6.76
36 | AUUCGCCUAUGUCAUCGGGUG [Fam2.2 aminoacylation ribozyme variant] | 5.1 | 3.35 | 4.65 | 3.16 | 30.7 | 6.54
37 | AUUCGCCUCGGUCAUCGGGUG [Fam2.2 aminoacylation ribozyme variant] | 8.96 | 5.14 | 8.94 | 6.21 | 56.3 | 10.9
38 | AUUCUCAUAGGUCAUCGGGUG [Fam2.2 aminoacylation ribozyme variant] | 10.8 | 5.71 | 10.6 | 6.14 | 82.5 | 13.5
39 | AUUCUCCGAGGUCAUCGGGUG [Fam2.2 aminoacylation ribozyme variant] | 16.7 | 9.69 | 14.7 | 10.6 | 141 | 22
40 | AUUCUCCUAAGUCAUCGGGUG [Fam2.2 aminoacylation ribozyme variant] | 16 | 10.3 | 16 | 9.67 | 154 | 21.3
41 | AUUCUCCUAGGACAUCGGGUG [Fam2.2 aminoacylation ribozyme variant] | 4.55 | 2.81 | 3.73 | 3.62 | 27.8 | 5.06
42 | AUUCUCCUAGGUCAGCGGGUG [Fam2.2 aminoacylation ribozyme variant] | 6.21 | 4.22 | 8.04 | 3.99 | 43.1 | 8.81
43 | AUUCUCCUAGGUCAUCGGGAG [Fam2.2 aminoacylation ribozyme variant] | 1.81 | 1.49 | 1.71 | 1.33 | 5.17 | 1.77
44 | AUUCUCCUAGGUCAUGGGGUG [Fam2.2 aminoacylation ribozyme variant] | 9.56 | 5.81 | 8.92 | 5.64 | 78.8 | 12.5
45 | AUUCUCCUAGGUCAUUGGGUG [Fam2.2 aminoacylation ribozyme variant] | 5.76 | 3.96 | 6.02 | 3.87 | 44 | 7.5
46 | AUUCUCCUAGUUCAUCGGGUG [Fam2.2 aminoacylation ribozyme variant] | 4.59 | 3.84 | 5.28 | 3.46 | 32.7 | 5.88
47 | AUUCUCGUAGGUCAUCGGGUG [Fam2.2 aminoacylation ribozyme variant] | 11.3 | 6.47 | 9.21 | 7.51 | 77.6 | 12.2
48 | AUUGACCAAGGUCAUCGGGUG [Fam2.2 aminoacylation ribozyme variant] | 6.04 | 4.36 | 6.06 | 3.9 | 45.5 | 7.01
49 | AUUGACCUAGGCCAUCGGGUG [Fam2.2 aminoacylation ribozyme variant] | 4.78 | 3.65 | 6.22 | 4.27 | 39.3 | 5.7
50 | AUUGACCUAGGUCAUCGAGUG [Fam2.2 aminoacylation ribozyme variant] | 9.94 | 6.03 | 6.09 | 5 | 27.9 | 13.7
51 | AUUGACCUAGGUCAUCGCGUG [Fam2.2 aminoacylation ribozyme variant] | 4.19 | 3.24 | 5.47 | 3.69 | 25 | 5.69
